Source: US20250340636A1 (Memorial Sloan Kettering, published 2025)

Columns and labels:
[1] = target: T1, human CHL-1 (residues 25-1096 with a C-terminal 10xHis tag) (human, UniProt O00533 25-1096); assay: ELISA, plates coated with human CHL-1
T1 construct: range 25-1096; also called L1CAM-2; L1CAM2
T1 sequence: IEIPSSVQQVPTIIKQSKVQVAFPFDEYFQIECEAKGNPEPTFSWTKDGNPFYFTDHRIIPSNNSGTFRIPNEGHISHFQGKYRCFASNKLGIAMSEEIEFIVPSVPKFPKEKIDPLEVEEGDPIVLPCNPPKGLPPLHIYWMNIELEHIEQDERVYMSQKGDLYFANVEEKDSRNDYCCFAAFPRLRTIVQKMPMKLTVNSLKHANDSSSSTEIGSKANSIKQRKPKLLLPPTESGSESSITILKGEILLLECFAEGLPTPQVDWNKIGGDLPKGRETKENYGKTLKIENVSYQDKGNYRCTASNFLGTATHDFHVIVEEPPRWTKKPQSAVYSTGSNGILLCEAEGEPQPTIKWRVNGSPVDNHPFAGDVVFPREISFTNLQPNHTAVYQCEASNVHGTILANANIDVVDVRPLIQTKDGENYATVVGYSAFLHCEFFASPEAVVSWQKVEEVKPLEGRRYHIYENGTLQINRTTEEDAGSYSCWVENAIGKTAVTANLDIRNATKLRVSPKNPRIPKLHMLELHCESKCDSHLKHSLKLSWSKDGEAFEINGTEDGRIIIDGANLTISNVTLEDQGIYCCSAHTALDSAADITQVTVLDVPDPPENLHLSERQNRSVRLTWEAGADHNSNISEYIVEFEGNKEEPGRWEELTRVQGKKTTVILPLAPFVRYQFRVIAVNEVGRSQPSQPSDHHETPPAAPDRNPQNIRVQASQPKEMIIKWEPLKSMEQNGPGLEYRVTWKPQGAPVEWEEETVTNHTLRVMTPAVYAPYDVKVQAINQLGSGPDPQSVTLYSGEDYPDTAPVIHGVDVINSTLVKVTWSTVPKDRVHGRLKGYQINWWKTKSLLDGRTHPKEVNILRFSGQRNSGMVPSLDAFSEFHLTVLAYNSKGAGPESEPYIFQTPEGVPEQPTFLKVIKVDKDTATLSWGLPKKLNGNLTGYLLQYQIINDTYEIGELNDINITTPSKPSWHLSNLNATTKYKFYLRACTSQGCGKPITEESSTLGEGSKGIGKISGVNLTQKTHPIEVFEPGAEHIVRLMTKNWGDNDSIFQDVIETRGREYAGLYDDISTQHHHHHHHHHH
Description: Selectivity. […] These proteins are other members of the L1 family of cell adhesion proteins and have between 49% and 55% sequence similarity with L1CAM in the extracellular portion. […] Positive control antibodies were included for each homolog. […] Epitope. The extracellular portion of L1CAM contains six immunoglobulin-like (Ig) domains and five fibronectin type III (FN) domains. To narrow down the binding region of the development candidate mAbs, truncated versions of human L1CAM protein (Ig domain, residues 21-605; FN domain, residues 606-1116; each with a C-terminal 6×His tag) were recombinantly produced, followed by a BLI experiment to test binding at 50 and 100 nM. […] 6×His tag is set forth in SEQ ID NO: 316.

[2] = target: T2, human L1CAM on cells (human, UniProt P32004 20-1257); assay: flow cytometry, MCF-7 cells, AlexaFluor 647 anti-human Fc secondary
T2 construct: Overexpressed on stably transfected HEK293T cells or endogenous on MCF-7 and MDA-MB-231 cells; also called HEK293T-hL1CAM
T2 sequence (P32004 20-1257): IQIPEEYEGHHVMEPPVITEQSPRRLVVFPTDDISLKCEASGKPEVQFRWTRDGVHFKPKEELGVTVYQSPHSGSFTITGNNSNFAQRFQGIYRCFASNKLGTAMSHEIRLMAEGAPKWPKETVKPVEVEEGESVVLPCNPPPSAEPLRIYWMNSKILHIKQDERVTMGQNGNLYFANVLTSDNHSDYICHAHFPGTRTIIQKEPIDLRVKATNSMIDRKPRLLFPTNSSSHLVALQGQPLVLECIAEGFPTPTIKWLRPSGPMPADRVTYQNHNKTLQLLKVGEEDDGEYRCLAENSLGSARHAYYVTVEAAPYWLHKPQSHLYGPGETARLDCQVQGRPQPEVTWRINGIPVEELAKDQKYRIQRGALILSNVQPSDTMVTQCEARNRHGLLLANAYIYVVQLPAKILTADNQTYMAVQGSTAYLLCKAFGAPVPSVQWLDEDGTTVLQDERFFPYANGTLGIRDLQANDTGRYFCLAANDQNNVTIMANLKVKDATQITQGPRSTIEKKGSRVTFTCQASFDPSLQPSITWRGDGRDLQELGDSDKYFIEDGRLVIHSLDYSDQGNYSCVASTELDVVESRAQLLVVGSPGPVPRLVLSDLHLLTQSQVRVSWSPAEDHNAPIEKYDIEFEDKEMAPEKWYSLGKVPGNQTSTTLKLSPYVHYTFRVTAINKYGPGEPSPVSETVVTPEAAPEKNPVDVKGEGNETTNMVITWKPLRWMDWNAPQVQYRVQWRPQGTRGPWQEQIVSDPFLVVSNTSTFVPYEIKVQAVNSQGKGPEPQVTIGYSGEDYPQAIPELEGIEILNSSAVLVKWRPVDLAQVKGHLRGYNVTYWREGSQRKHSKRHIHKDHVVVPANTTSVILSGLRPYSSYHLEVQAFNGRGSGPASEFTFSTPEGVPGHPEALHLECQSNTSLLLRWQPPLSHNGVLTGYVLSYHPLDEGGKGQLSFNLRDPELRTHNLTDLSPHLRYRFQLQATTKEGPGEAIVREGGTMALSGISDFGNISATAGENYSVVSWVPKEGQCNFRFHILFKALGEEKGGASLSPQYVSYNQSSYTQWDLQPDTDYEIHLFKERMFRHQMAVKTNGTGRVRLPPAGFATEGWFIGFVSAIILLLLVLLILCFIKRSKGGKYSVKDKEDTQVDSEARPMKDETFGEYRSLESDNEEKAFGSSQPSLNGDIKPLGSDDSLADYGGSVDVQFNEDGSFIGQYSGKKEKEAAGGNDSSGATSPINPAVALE
Method: (§1) Binding to L1CAM on Cells. […] Cells were then incubated with an AlexaFluor 647 goat anti-human Fc secondary antibody. After washing, the stained cells were analyzed by flow cytometry.
(§2) The binding curves for each antibody and cell line normalized to secondary antibody only staining (MFI ratio) are shown in FIGS. 14A-14C. EC50 values were determined by non-linear regression (Table 70). […] It is possible that differences in the conformation and oligomerization of L1CAM, depending on the surface expression level, contributed to the binding pattern. […] An avidity effect due to high levels of L1CAM surface expression may have contributed to the strong binding observed in this experiment.

[3] = target: T2, human L1CAM on cells; assay: summary table; binding to cells overexpressing human L1CAM (HEK293T)
Method: as §1, §2

[4] = target: T2, human L1CAM on cells; assay: flow cytometry, HEK293T-hL1CAM cells, AlexaFluor 647 anti-human Fc secondary
Method: as §1, §2

[5] = target: T3, extracellular domain of human L1CAM (isoform 1) fused to a poly-histidine tag via its carboxy terminus (human, UniProt P32004 20-1120); assay: BLI (Octet Red96e), His-tagged human L1CAM on Ni-NTA biosensors, mAb as analyte, 1:1 fit
T3 construct: Bought (Creative Biomart); also called L1CAM-His; huL1CAM protein
T3 sequence (P32004 20-1120): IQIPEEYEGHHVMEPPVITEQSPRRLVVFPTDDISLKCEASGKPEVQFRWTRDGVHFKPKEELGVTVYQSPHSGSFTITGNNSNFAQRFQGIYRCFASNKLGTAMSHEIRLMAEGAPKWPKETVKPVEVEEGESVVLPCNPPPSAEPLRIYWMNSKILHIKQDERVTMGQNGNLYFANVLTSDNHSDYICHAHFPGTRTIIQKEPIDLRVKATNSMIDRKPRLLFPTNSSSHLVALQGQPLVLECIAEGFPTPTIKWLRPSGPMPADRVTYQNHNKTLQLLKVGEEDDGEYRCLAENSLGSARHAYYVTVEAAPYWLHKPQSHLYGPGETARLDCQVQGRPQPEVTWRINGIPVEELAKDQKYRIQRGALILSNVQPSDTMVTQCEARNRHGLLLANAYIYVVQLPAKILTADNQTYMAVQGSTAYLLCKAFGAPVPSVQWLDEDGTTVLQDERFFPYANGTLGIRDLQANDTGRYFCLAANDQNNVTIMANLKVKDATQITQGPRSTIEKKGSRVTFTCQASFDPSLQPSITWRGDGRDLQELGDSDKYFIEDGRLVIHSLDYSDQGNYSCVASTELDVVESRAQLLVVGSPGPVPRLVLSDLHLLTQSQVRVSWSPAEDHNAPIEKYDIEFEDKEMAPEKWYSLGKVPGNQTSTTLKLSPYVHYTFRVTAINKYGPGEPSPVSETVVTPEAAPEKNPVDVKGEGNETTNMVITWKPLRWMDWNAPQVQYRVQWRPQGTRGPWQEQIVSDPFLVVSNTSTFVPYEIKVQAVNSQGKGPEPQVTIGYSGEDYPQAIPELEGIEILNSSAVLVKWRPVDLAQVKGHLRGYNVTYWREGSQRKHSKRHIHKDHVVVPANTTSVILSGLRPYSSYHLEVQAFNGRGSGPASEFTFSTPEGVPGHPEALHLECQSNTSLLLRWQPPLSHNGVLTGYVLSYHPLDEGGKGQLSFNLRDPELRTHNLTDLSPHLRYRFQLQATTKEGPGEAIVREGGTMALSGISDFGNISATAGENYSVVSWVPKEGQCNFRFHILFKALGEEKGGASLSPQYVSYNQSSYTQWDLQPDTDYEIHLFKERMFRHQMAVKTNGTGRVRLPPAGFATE
Method: Binding to L1CAM in Solution. Affinity to human L1CAM was measured by BLI using an Octet Red96e instrument. […] The data was prepared by reference well subtraction, and response curves were globally fit to a 1:1 Langmuir binding model.

B1: TDI-Y-005 (antibody, human IgG1, kappa, V domains shown)
VH: EVQMVESGGGLVQPGGSLRLSCAAPGFIFSSYNMNWVRQAPGKGLEWVSYISSSSSTTYYADSVKGRFTISRDNAKNSLYLQMNSLRDEDTAVYYCASLYSGYDYYYYYGMDVWGQGTTVTVSS
VL: DIVMTQTPLSSPVSLGQPASISCRSSQSLVHSDGNTYLSWLQQRPGQPPRVLIYKISKRFSGVPDRFSGSGAGTDFTLKISRVEAEDVGVYYCMQATQFPFTFGPGTKVDIKR
notes: Human IgG1, kappa; also called human 14A10 mAb; fully human 14A10 mAb
binding result [1]: no binding (tested: 1 µM) | EC50 [2]: 2.5 nM | EC50 [3]: 2 nM | EC50 [4]: 2 nM | Kd [5]: 4.3 nM | koff [5]: 0.00014 s⁻¹ | kon [5]: 33000 M⁻¹ s⁻¹
